The source of these data is the supplement of paper PMC12764529.

± gives the half width of the 95% confidence interval.

The nature of data set [1]: folding stability dG unfold from trypsin proteolysis; higher = more stable. The method in brief: (§1)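 Unfolding free energy was derived, per protease or combined, against a sequence-predicted unfolded-state K50 and a shared folded-state K50, starting from K50 inferred by Bayesian fitting of sequencing counts. Digestion with trypsin and chymotrypsin was carried out on designed mini-proteins under 80 residues without cysteine in a PA-tagged cDNA display construct. Only designs with AlphaFold2 dimer inter-PAE above 15 were kept.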

A short description of data set [2]: folding stability dG unfold from chymotrypsin proteolysis; higher = more stable. Put shortly:
as §1

Data set [3] can be described thus: folding stability dG unfold (combined trypsin and chymotrypsin); higher = more stable. The method in brief: as §1

As for “SAGDMIKIPFNFKDPNGAKPKELEVMISPDPGVITAMFKYKHNNEPKYYMISIPIDPGNGKIEIEIQPMSAG [r5_136_TrROS]”, the “folding stability dG unfold” value in data set [1] is 1.2 ± 0.058 kcal/mol; in data set [2], 1.65 ± 0.17 kcal/mol; in data set [3], 1.46 ± 0.12 kcal/mol.
Taken in the same sequence, the figures for “SAGDNLKIDVEVEPAKVILGEFDENGKLIKPIEKDVLIVKVTVTFSNGKKLEIRATFFDGKLISVSSGSAGG [r19_44_TrMRF]” were 3.56 ± 0.16 kcal/mol, 5.26 ± 0.086 kcal/mol and 5.07 ± 0.19 kcal/mol.
Taken in the same sequence, the figures for “SAGDNNKKPKYVYIPITINVPLPPGQTHEEAVDEVRLIMEELFPPGFKISEVKVHPEYNTVTVWIQIRSAGG [r19_81_TrROS]” were 2.11 ± 0.089 kcal/mol, 2.16 ± 0.044 kcal/mol and 2.22 ± 0.18 kcal/mol.
The matching figures for “SAGDPDRPVVVVIHYVDPETGEPRVEVFPADRIERIEVSPDGVLRIHLPAYGLEIDFPLDVVDHVDIASAGG [r19_416_TrMRF]”: 1.99 ± 0.064 kcal/mol, 2.17 ± 0.044 kcal/mol and 2.12 ± 0.027 kcal/mol.
Regarding “SAGDPEVVAEAEFPFTFPLAKIEVRISVYPDGTARIEVTITFPAPGKGNPKKPIKLRFRFEIKLAPDALSAG [r5_224_TrMRF]”, the “folding stability dG unfold” value in data set [1] came out at 3.8 ± 0.3 kcal/mol; in data set [2], 5.3 ± 0.15 kcal/mol; in data set [3], 5.12 ± 0.36 kcal/mol.
Taken in the same sequence, the figures for “SAGDVKIDIHYDEDGYIRVTVPYKSPHEAREEADELARWLAKQFGPKNIDINVEPHPNGMLVIRIPIKKSAG [r5_772_TrROS]” were 2.17 ± 0.099 kcal/mol, 3.05 ± 0.082 kcal/mol and 2.62 ± 0.12 kcal/mol.
The matching figures for “SAGDVPVPATFEVELPGDGTARVTVVRHPGAAPGGFDTVRVEFRPGPTSSVTLTYRVPPGSAPVPFLGGSAG [r5_47_TrMRF]”: 0.535 ± 0.16 kcal/mol, 1.33 ± 0.31 kcal/mol and 0.965 ± 0.19 kcal/mol.
Taken in the same sequence, the figures for “SAGEATVEKLEDGYVVVFKDGSVAFLPAVPPAVPVVEIPFKDPEEGRRAVEELGADVLDIGDDSIVVAGSAG [r5_328_TrMRF]” were -1.19 ± 0.16 kcal/mol, 0.346 ± 0.033 kcal/mol and -0.01 ± 0.1 kcal/mol.
Regarding “SAGEEIEELAKKLADELREKYPELEVKVEVVEVTVKTTVVKDKETGKLYTKTEITVKLKVEVVPKEELSAGG [r19_293_TrROS_Hall]”, the “folding stability dG unfold” value in data set [1] is 1.99 ± 0.23 kcal/mol; in data set [2] it was 3.81 ± 0.21 kcal/mol; in data set [3], 3.08 ± 0.31 kcal/mol.
Taken in the same sequence, the figures for “SAGEEIERLLKEIEEAVRKAYPDKVVKVDLVKVELRPVLVVDPGTPRIEERTEIFLEVKVTVTHPDELSAGG [r19_293_TrMRF]” were 2.22 ± 0.098 kcal/mol, 2.77 ± 0.08 kcal/mol and 2.63 ± 0.087 kcal/mol.
Taken in the same sequence, the figures for “SAGEELIKKLAEELNLEVEIVSVEVDEETPTITVEVRVRNKDGEELTVRITITYDKETDEVHIEVEVLPSAG [r5_929_TrROS_Hall]” were 3.91 ± 0.14 kcal/mol, 3.99 ± 0.26 kcal/mol and 4.08 ± 0.2 kcal/mol.
Taken in the same sequence, the figures for “SAGEEVYLITVRIIDPETNEVKEITKLIKNKTEDEILEELRKLLEELGIELPEGAKVEITITKIKPPPESAG [r5_230_TrROS_Hall]” were 3.53 ± 0.52 kcal/mol, 4.07 ± 0.44 kcal/mol and 4.26 ± 0.82 kcal/mol.
Consider “SAGEFKIDILPGDNVARITSPEGSFLAPFTATFTFDVPDIADPNKIKPKPVVFNLVIEMKLDDFFDLLSSAG [r5_234_TrMRF]”, for which the “folding stability dG unfold” value in data set [1] is 2.49 ± 0.1 kcal/mol; in data set [2], 4.17 ± 0.17 kcal/mol; in data set [3] it was 3.36 ± 0.15 kcal/mol.
The matching figures for “SAGEIAEKLGFKVEDVSIQKEDGTYRIVVRFPMDDRPVVIMGDIKVEEKNGKRKIEIDIDIMPLPPDDPSAG [r5_516_TrROS]”: 1.89 ± 0.03 kcal/mol, 1.57 ± 0.054 kcal/mol and 1.7 ± 0.086 kcal/mol.
Taken in the same sequence, the figures for “SAGEKEYVNLPLVVKLPPGVPASLILDAAVKHGAKEVTIVEEPTPDGGMVLHINLVLPKEALPKLLESLSAG [r5_376_TrMRF]” were 4.39 ± 0.21 kcal/mol, 4.61 ± 0.17 kcal/mol and 4.79 ± 0.3 kcal/mol.
Taken in the same sequence, the figures for “SAGEKFEPVEEKELTLKITLKDKDGNEKEVEIKVKVEVVKNPDGTLTVRAEITFEDGTKIELELEIKLPSAG [r5_57_TrROS_Hall]” were 3.27 ± 0.16 kcal/mol, 3.19 ± 0.23 kcal/mol and 3.11 ± 0.33 kcal/mol.
“SAGEKKKVVIVVHIHIEAESEEDREKALEEARKLAEELARELKEKLGLPEDVKEVVVIVHIHPRSEEEKSAG [r5_436_TrROS_Hall]”: the “folding stability dG unfold” value in data set [1] was found to be 2.01 ± 0.086 kcal/mol; in data set [2], 2.42 ± 0.083 kcal/mol; in data set [3], 2.25 ± 0.12 kcal/mol.
As to “SAGEKTVKIKLPNTKTITVKVKKNEKKILYLPNGEKILITDVKKGKVSLKKGITYVKDKNGKWYPLKYKSAG [r5_417_TrMRF]”, the “folding stability dG unfold” value in data set [1] is 0.332 ± 0.15 kcal/mol; in data set [2], 1.86 ± 0.079 kcal/mol; in data set [3], 1.37 ± 0.1 kcal/mol.
The matching figures for “SAGELELELELEFELEDGYRVEVRLRLRVRPDGSVRMELEVRIEPLPPPPPVRVVVVREDDPEALRALSAGG [r19_12_TrROS_Hall]”: 2.73 ± 0.1 kcal/mol, 4.49 ± 0.19 kcal/mol and 3.6 ± 0.61 kcal/mol.
The matching figures for “SAGELTAEEIAERLRKLLEELGIEEVEVEVEEVEVEEEEEPVEEEEEEELSEEERERLRRERLEEEGLLSAG [r5_9_TrROS_Hall]”: 1.59 ± 0.073 kcal/mol, 2.1 ± 0.037 kcal/mol and 1.92 ± 0.12 kcal/mol.
Taken in the same sequence, the figures for “SAGEPDKPFTLTLKLLLPQSEDGTPLTPEEAEELAKEISTELGVEVEEIKITSNPEGNFVEIEVKLRGSAGG [r19_322_TrMRF]” were 2.02 ± 0.031 kcal/mol, 2.568 ± 0.015 kcal/mol and 2.4 ± 0.059 kcal/mol.
On to “SAGEPLGPEKAKELAEELVERVAREIAERLGLAPEEVEVVSVELTPDGRLVLTLRVPEREFTFVFPVEGSAG [r5_565_TrMRF]”, for which the “folding stability dG unfold” value in data set [1] is 3.36 ± 0.078 kcal/mol; in data set [2], 4.89 ± 0.054 kcal/mol; in data set [3], 4.62 ± 0.054 kcal/mol.
The matching figures for “SAGERKVLVIENLTSEELIEAIREALEKSPPGLLILVPDPEKAEEIRRAFPGIPLVVLNRETGELVEVESAG [r5_391_TrMRF]”: 3 ± 0.12 kcal/mol, 3.46 ± 0.044 kcal/mol and 3.33 ± 0.099 kcal/mol.
With “SAGEVKIEISVEKVGGKYIVRIKVTVDGKEYEYEFPAGKSVEELAKELEKKLNLKVKKIEVEVRKLPPKSAG [r5_181_TrROS_Hall]”, the “folding stability dG unfold” value was 2.88 ± 0.11 kcal/mol in data set [1], 3.47 ± 0.12 kcal/mol in data set [2] and 3.28 ± 0.25 kcal/mol in data set [3].
The matching figures for “SAGEVKIEVEGLPDKTVIRITIPYTAPGVGPSALLAVLKELGLPPETKLLKVEFYEEPKTVEALVVQGSAGG [r19_186_TrMRF]”: 1.13 ± 0.088 kcal/mol, 1.72 ± 0.16 kcal/mol and 1.63 ± 0.11 kcal/mol.
“SAGEYVLVEVERGGKVETFVLPPELAKELLEKYSPDSEIPVKLEGREVRLRVLPIKPKEPTPEELAKAASAG [r5_669_TrMRF]”: the figures for the “folding stability dG unfold” value in data set [1], in data set [2] and in data set [3] were 0.306 ± 0.085 kcal/mol, 1.85 ± 0.14 kcal/mol and 1.41 ± 0.16 kcal/mol, respectively.
Taken in the same sequence, the figures for “SAGFEARVLEVVDLGDRRVALFELRDPEEGRYLLAVAVYDPETGLARVELWDPTDGRLVATPVVPVLPLSAG [r5_440_TrMRF]” were 1.72 ± 0.027 kcal/mol, 2.36 ± 0.047 kcal/mol and 2.12 ± 0.066 kcal/mol.
Taken in the same sequence, the figures for “SAGFKIKIEPIEVLPNGTVKYKAIIETEKEKYEVEAFYNPKTGLIYIYSPKTGSIMKINPKTGKIILIPSAG [r14_260_TrMRF]” were 3.44 ± 0.15 kcal/mol, 4.18 ± 0.11 kcal/mol and 4.03 ± 0.2 kcal/mol.
Taken in the same sequence, the figures for “SAGFSIVEVEPDEDTYTITIEYTLPNGTVKTKDLPLKAKNPVLLEISENEITIYLPDTNEVVTLPVSLISAG [r14_947_JUSTAS]” were 1.92 ± 0.087 kcal/mol, 1.74 ± 0.16 kcal/mol and 1.87 ± 0.29 kcal/mol.
Turning to “SAGFYFRITEITVNPDAGKLTIRNPNGQEQEIPPGGKISIKMRFYRFNDNGGKPETFEMEHTIPIPPGDSAG [r14_366_TrROS]”, the “folding stability dG unfold” value in data set [1] worked out at 2.62 ± 0.042 kcal/mol; in data set [2], 3.43 ± 0.085 kcal/mol; in data set [3], 3.15 ± 0.12 kcal/mol.
Taken in the same sequence, the figures for “SAGGAEEARKAGRPVLLTVTVTAPGSGKVSTLPLLVPADRPVDVEALVAALFPADWAVTVSVSPVGGSAGGS [r8_127_JUSTAS]” were 1.32 ± 0.028 kcal/mol, 1.37 ± 0.051 kcal/mol and 1.27 ± 0.11 kcal/mol.
Taken in the same sequence, the figures for “SAGGAEELAKRLAEELREAGYEVEVVKVERLENGEVVITMKVRVVKDGKEVEEREIKLVLKLPEELLSAGGS [r8_102_TrROS_Hall]” were 3.93 ± 0.097 kcal/mol, 4.03 ± 0.069 kcal/mol and 3.98 ± 0.086 kcal/mol.
Taken in the same sequence, the figures for “SAGGAEIKITSIEYNPETKTITAKVEITVDGKKFTFTITIKLKAAPAPPTVTVTDKDIPGKTVTLTKTSAGG [r13_615_TrROS_Hall]” were 1.51 ± 0.14 kcal/mol, 2.38 ± 0.13 kcal/mol and 2.1 ± 0.24 kcal/mol.
With “SAGGAFPPGEKVEVRIEVVELPGEGTYLLRAYLPGGKLLWERPFPEGELEAFAEEFRSLGFDTVEVTPSAGG [r13_765_TrMRF]”, the “folding stability dG unfold” value in data set [1] was 2.512 ± 0.021 kcal/mol; in data set [2], 2.736 ± 0.0075 kcal/mol; in data set [3], 2.69 ± 0.035 kcal/mol.
The matching figures for “SAGGAGDQPVVIVATGSDGSPRVFPFKTKEPFKVTVNFPDEKRVFTVPADEPFVFDAPDGDILLDASSAGGS [r16_456_TrMRF]”: -0.23 ± 0.11 kcal/mol, 0.697 ± 0.12 kcal/mol and 0.394 ± 0.095 kcal/mol.
Taken in the same sequence, the figures for “SAGGAITLEYEVETEEEAEKAIEELEKELKEKFGGPVKIEKATIEKTEDPSVPREKYRLKLTIEINKSAGGS [r8_171_JUSTAS]” were 0.198 ± 0.13 kcal/mol, 1.08 ± 0.11 kcal/mol and 0.858 ± 0.28 kcal/mol.
